Target: (AcA4)2KD amphiphilic peptide ((Ac-Ala-Ala-Ala-Ala)2-Lys-Asp-OH)
Assay: dynamic light scattering

(AcA4)2KD amphiphilic peptide ((Ac-Ala-Ala-Ala-Ala)2-Lys-Asp-OH)
critical aggregation concentration: 0.8 mM
